The values that follow come from the supplement of paper PMC5998384.

Series [1] concerns HeLa Kyoto. Put plainly: solubility in G1/S (NP-40 vs SDS abundance) (log2 ratio); higher = more soluble. The settings on record: cell cycle stage: G1/S.
The subject of series [2] is HeLa Kyoto. Put plainly: solubility change mitosis vs G1/S (difference of NP-40 vs SDS log2 ratios) (log2 ratio difference); higher = more soluble in mitosis.
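For solubility change mitosis vs G1/S (difference of NP-40 vs SDS log2 ratios) in this document: synchronized HeLa Kyoto cells (double thymidine block for G1/S, nocodazole release for mitosis), protein amounts in NP-40 versus SDS lysates quantified by mass spectrometry, three biological replicates.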
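For solubility in G1/S (NP-40 vs SDS abundance) in this document: HeLa Kyoto cells arrested at G1/S by double thymidine block, proteins quantified by TMT10plex mass spectrometry in mild NP-40 versus SDS extracts, three biological replicates.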

For the sequence “MAHLGPTPPPHSLNYKSEDRLSEQDWPAYFKVPCCGVDTSQIESEEAEVDVRERETQRDREPKRARDLTLRDSCTDNSMQFGTRTTTAEPGFMGTWQNADTNLLFRMSQQAIRCTLVNCTCECFQPGKINLRTCDQCKHGWVAHALDKLSTQHLYHPTQVEIVQSNVVFDISSLMLYGTQAVPVRLKILLDRLFSVLKQEEVLHILHGLGWTLRDYVRGYILQDAAGKVLDRWAIMSREEEIITLQQFLRFGETKSIVELMAIQEKEGQAVAVPSSKTDSDIRTFIESNNRTRSPSLLAHLENSNPSSIHHFENIPNSLAFLLPFQYINPVSAPLLGLPPNGLLLEQPGLRLREPSLSTQNEYNESSESEVSPTPYKNDQTPNRNALTSITNVEPKTEPACVSPIQNSAPVSDLTKTEHPKSSFRIHRMRRMGSASRKGRVFCNACGKTFYDKGTLKIHYNAVHLKIKHRCTIEGCNMVFSSLRSRNRHSANPNPRLHMPMLRNNRDKDLIRATSGAATPVIASTKSNLALTSPGRPPMGFTTPPLDPVLQNPLPSQLVFSGLKTVQPVPPFYRSLLTPGEMVSPPTSLPTSPIIPTSGTIEQHPPPPSEPVVPAVMMATHEPSADLAPKKKPRKSSMPVKIEKEIIDTADEFDDEDDDPNDGGAVVNDMSHDNHCHSQEEMSPGMSVKDFSKHNRTRCISRTEIRRADSMTSEDQEPERDYENESESSEPKLGEESMEGDEHIHSEVSEKVLMNSERPDENHSEPSHQDVIKVKEEFTDPTYDMFYMSQYGLYNGGGASMAALHESFTSSLNYGSPQKFSPEGDLCSSPDPKICYVCKKSFKSSYSVKLHYRNVHLKEMHVCTVAGCNAAFPSRRSRDRHSANINLHRKLLTKELDDMGLDSSQPSLSKDLRDEFLVKIYGAQHPMGLDVREDASSPAGTEDSHLNGYGRGMAEDYMVLDLSTTSSLQSSSSIHSSRESDAGSDEGILLDDIDGASDSGESAHKAEAPALPGSLGAEVSGSLMFSSLSGSNGGIMCNICHKMYSNKGTLRVHYKTVHLREMHKCKVPGCNMMFSSVRSRNRHSQNPNLHKNIPFTSVD [BNC2]”, the “solubility in G1/S (log2)” value with HeLa Kyoto [1] is -0.628. Also, the “solubility change mitosis (log2)” value with HeLa Kyoto [2] amounted to 0.235.
With “MAQASLLACEGLAGVSLVPTAASKKMMLSQIASKQAENGERAGSPDVLRCSSQGHRKDSDKSRSRKDDDSLSEASHSKKTVKKVVVVEQNGSFQVKIPKNFVCEHCFGAFRSSYHLKRHILIHTGEKPFECDICDMRFIQKYHLERHKRVHSGEKPYQCERCHQCFSRTDRLLRHKRMCQGCQSKTSDGQFSL [ZNF740]”, in the series on HeLa Kyoto [1], the “solubility in G1/S (log2)” value was -0.111. In the series on HeLa Kyoto [2], the “solubility change mitosis (log2)” value was -0.0892.
The corresponding values for “MEGLGRSCLWLRRELSPPRPRLLLLDCRSRELYESARIGGALSVALPALLLRRLRRGSLSVRALLPGPPLQPPPPAPVLLYDQGGGRRRRGEAEAEAEEWEAESVLGTLLQKLREEGYLAYYLQGGFSRFQAECPHLCETSLAGRAGSSMAPVPGPVPVVGLGSLCLGSDCSDAESEADRDSMSCGLDSEGATPPPVGLRASFPVQILPNLYLGSARDSANLESLAKLGIRYILNVTPNLPNFFEKNGDFHYKQIPISDHWSQNLSRFFPEAIEFIDEALSQNCGVLVHCLAGVSRSVTVTVAYLMQKLHLSLNDAYDLVKRKKSNISPNFNFMGQLLDFERSLRLEERHSQEQGSGGQASAASNPPSFFTTPTSDGAFELAPT [DUSP9]” are 0.279 and -0.104.
Consider “MALFVRLLALALALALGPAATLAGPAKSPYQLVLQHSRLRGRQHGPNVCAVQKVIGTNRKYFTNCKQWYQRKICGKSTVISYECCPGYEKVPGEKGCPAALPLSNLYETLGVVGSTTTQLYTDRTEKLRPEMEGPGSFTIFAPSNEAWASLPAEVLDSLVSNVNIELLNALRYHMVGRRVLTDELKHGMTLTSMYQNSNIQIHHYPNGIVTVNCARLLKADHHATNGVVHLIDKVISTITNNIQQIIEIEDTFETLRAAVAASGLNTMLEGNGQYTLLAPTNEAFEKIPSETLNRILGDPEALRDLLNNHILKSAMCAEAIVAGLSVETLEGTTLEVGCSGDMLTINGKAIISNKDILATNGVIHYIDELLIPDSAKTLFELAAESDVSTAIDLFRQAGLGNHLSGSERLTLLAPLNSVFKDGTPPIDAHTRNLLRNHIIKDQLASKYLYHGQTLETLGGKKLRVFVYRNSLCIENSCIAAHDKRGRYGTLFTMDRVLTPPMGTVMDVLKGDNRFSMLVAAIQSAGLTETLNREGVYTVFAPTNEAFRALPPRERSRLLGDAKELANILKYHIGDEILVSGGIGALVRLKSLQGDKLEVSLKNNVVSVNKEPVAEPDIMATNGVVHVITNVLQPPANRPQERGDELADSALEIFKQASAFSRASQRSVRLAPVYQKLLERMKH [TGFBI]”, for which, in the series with HeLa Kyoto [1], the “solubility in G1/S (log2)” value was -0.072. In the series with HeLa Kyoto [2], the “solubility change mitosis (log2)” value was -0.149.
With “MPPGKVLQPVLKMKVDELFLYWLSEASTQRMLQDCLRRIKAPGRDQPTPGDGEQPGAWPTAPLAAPRPSGLEPPGTPGPGPALPLGAASSPRNAPHVRGTRRSAGTRVVQTRKEEPLPPATSQSIPTFYFPRGRPQDSVNVDAVISKIESTFARFPHERATMDDMGLVAKACGCPLYWKGPLFYGAGGERTGSVSVHKFVAMWRKILQNCHDDAAKFVHLLMSPGCNYLVQEDFVPFLQDVVNTHPGLSFLKEASEFHSRYITTVIQRIFYAVNRSWSGRITCAELRRSSFLQNVALLEEEADINQLTEFFSYEHFYVIYCKFWELDTDHDLLIDADDLARHNDHALSTKMIDRIFSGAVTRGRKVQKEGKISYADFVWFLISEEDKKTPTSIEYWFRCMDLDGDGALSMFELEYFYEEQCRRLDSMAIEALPFQDCLCQMLDLVKPRTEGKITLQDLKRCKLANVFFDTFFNIEKYLDHEQKEQISLLRDGDSGGPELSDWEKYAAEEYDILVAEETAGEPWEDGFEAELSPVEQKLSALRSPLAQRPFFEAPSPLGAVDLYEYACGDEDLEPL [PPP2R3B]”, in the series with HeLa Kyoto [1], the “solubility in G1/S (log2)” value came out at 0.0833. In the series with HeLa Kyoto [2], the “solubility change mitosis (log2)” value is -0.203.
The corresponding values for “MDWKEVLRRRLATPNTCPNKKKSEQELKDEEMDLFTKYYSEWKGGRKNTNEFYKTIPRFYYRLPAEDEVLLQKLREESRAVFLQRKSRELLDNEELQNLWFLLDKHQTPPMIGEEAMINYENFLKVGEKAGAKCKQFFTAKVFAKLLHTDSYGRISIMQFFNYVMRKVWLHQTRIGLSLYDVAGQGYLRESDLENYILELIPTLPQLDGLEKSFYSFYVCTAVRKFFFFLDPLRTGKIKIQDILACSFLDDLLELRDEELSKESQETNWFSAPSALRVYGQYLNLDKDHNGMLSKEELSRYGTATMTNVFLDRVFQECLTYDGEMDYKTYLDFVLALENRKEPAALQYIFKLLDIENKGYLNVFSLNYFFRAIQELMKIHGQDPVSFQDVKDEIFDMVKPKDPLKISLQDLINSNQGDTVTTILIDLNGFWTYENREALVANDSENSADLDDT [C14ORF10]” are -0.0201 and -0.0757.
On the same counts, the results for “MNFEGLDPGLAEYAPAMHSALDPVLDAHLNPSLLQNVELDPEGVALEALPVQESVHIMEGVYSELHSVVAEVGVPVSVSHFDLHEEMLWVGSHGGHATSFFGPALERYSSFQVNGSDDIRQIQSLENGILFLTKNNLKYMARGGLIIFDYLLDENEDMHSLLLTDSSTLLVGGLQNHIIEIDLNTVQETQKYAVETPGVTIMRQTNRFFFCGHTSGKVSLRDLRTFKVEHEFDAFSGSLSDFDVHGNLLAACGFSSRLTGLACDRFLKVYDLRMMRAITPLQVHVDPAFLRFIPTYTSRLAIISQSGQCQFCEPTGLANPADIFHVNPVGPLLMTFDVSASKQALAFGDSEGCVHLWTDSPEPSFNPYSRETEFALPCLVDSLPPLDWSQDLLPLSLIPVPLTTDTLLSDWPAANSAPAPRRAPPVDAEILRTMKKVGFIGYAPNPRTRLRNQIPYRLKESDSEFDSFSQVTESPVGREEEPHLHMVSKKYRKVTIKYSKLGLEDFDFKHYNKTLFAGLEPHIPNAYCNCMIQVLYFLEPVRCLIQNHLCQKEFCLACELGFLFHMLDLSRGDPCQGNNFLRAFRTIPEASALGLILADSDEASGKGNLARLIQRWNRFILTQLHQDMQELEIPQAYRGAGGSSFCSSGDSVIGQLFSCEMENCSLCRCGSETVRASSTLLFTLSYPDGSKSDKTGKNYDFAQVLKRSICLDQNTQAWCDTCEKYQPTIQTRNIRHLPDILVINCEVNSSKEADFWRMQAEVAFKMAVKKHGGEISKNKEFALADWKELGSPEGVLVCPSIEELKNVWLPFSIRMKMTKNKGLDVCNWTDGDEMQWGPARAEEEHGVYVYDLMATVVHILDSRTGGSLVAHIKVGETYHQRKEGVTHQQWYLFNDFLIEPIDKHEAVQFDMNWKVPAILYYVKRNLNSRYNLNIKNPIEASVLLAEASLARKQRKTHTTFIPLMLNEMPQIGDLVGLDAEFVTLNEEEAELRSDGTKSTIKPSQMSVARITCVRGQGPNEGIPFIDDYISTQEQVVDYLTQYSGIKPGDLDAKISSKHLTTLKSTYLKLRFLIDIGVKFVGHGLQKDFRVINLMVPKDQVLDTVYLFHMPRKRMISLRFLAWYFLDLKIQGETHDSIEDARTALQLYRKYLELSKNGTEPESFHKVLKGLYEKGRKMDWKVPEPEGQTSPKNAAVFSSVLAL [PAN2]” are -0.18 and 0.206.
The corresponding values for “METPPVNTIGEKDTSQPQQEWEKNLRENLDSVIQIRQQPRDPPTETLELEVSPDPASQILEHTQGAEKLVAELEGDSHKSHGSTSQMPEALQASDLWYCPDGSFVKKIVIRGHGLDKPKLGSCCRVLALGFPFGSGPPEGWTELTMGVGPWREETWGELIEKCLESMCQGEEAELQLPGHSGPPVRLTLASFTQGRDSWELETSEKEALAREERARGTELFRAGNPEGAARCYGRALRLLLTLPPPGPPERTVLHANLAACQLLLGQPQLAAQSCDRVLEREPGHLKALYRRGVAQAALGNLEKATADLKKVLAIDPKNRAAQEELGKVVIQGKNQDAGLAQGLRKMFG [FKBPL]” are 0.618 and 0.144.
